Experimental data from patent publication US20240092853A1 (Hoffmann-La Roche, published 2024).
Where a chain is given by its changes, count along the chain named.

B1: ExplResOnc.P177.0035 (IL2v (consensus all)) (ligand, not shown: large carriers)
chain: APASSSTKKTELQLQELLDDLQMILNGINNYKNPKLTRMLTAKFAMPKKATELKHLQCLEEELKPLEEVLNGAQSKNFHLDPRELIENINVIVLELKGSETTFMCEYADETATIVEFLNHWITFAQSIIETLE
notes: as m20
B2: ExplResOnc.P175.0368 (ligand, not shown: large carriers)
chain: B1 chain with E11T, L12E, H120E, E133D
notes: as m20
B3: ExplResIEE.P041.449 (ligand)
chain: B1 chain with E11Q, Q15E, E16H, D19L, D81Q, E84D, V91D, H120E, E133D
notes: as m5; not shown: C-terminal His tag and Flag tag of the phagemid
B4: ExplResIEE.P041.017 (ligand)
chain: APASSSTKKTEEQLEHLLLDLQQILNGINNYKNPKLTRMLTAKFAMPKKATELKHLQCLEEELKPLEEVLNGAQSKNFHLQPRDLIDNINNIVLQLKGSETTFMCEYADETATIVEFLNHWIEFAQSIIETLE
notes: as for B3
B5: ExplResIEE.P030.006 (ligand)
chain: B4 chain with E11Q, E12L, Q23M, Q81D, D84Q, Q95E, H120R, E123Q, E133D
notes: as for B3
B6: ExplResOnc.P175.0125 (ligand, not shown: large carriers)
chain: B1 chain with L12T, Q15E, Q22E, E133D
notes: as m20
B7: ExplResOnc.P173.0371 (ligand, not shown: large carriers)
chain: B1 chain with E11Q, Q15E, M23Q, D81N, E87D, E133D
notes: as m20
B8: ExplResIEE.P026.099 (ligand)
chain: B4 chain with E11Q, D20E, Q23N, Q81N, D84E, D87E, N91V, Q95E, H120E, E133N
notes: soluble pH-dependent IL2v variant in bacterial supernatant, first library; not shown: C-terminal His tag and Flag tag of the phagemid
B9: ExplResIEE.P026.355 (ligand)
chain: B4 chain with Q81D, D87E, N91D, Q95E, H120R, E123T, E133Q
notes: as for B3
B10: ExplResOnc.P177.0156 (ligand, not shown: large carriers)
chain: B1 chain with L12S, Q15E, M23Q
notes: as m20
B11: ExplResIEE.P041.554 (ligand)
chain: B4 chain with E11Q, E12Q, L19Q, Q23M, Q81H, D87S, N91E, Q95E, H120R
notes: as for B3
B12: ExplResOnc.P173.0127 (ligand, not shown: large carriers)
chain: B1 chain with Q15E, M23E, E84D, Q126E, E130S, E133D
notes: as m20
B13: ExplResOnc.P173.0087 (ligand, not shown: large carriers)
chain: B1 chain with L12E, Q15E, E16Q, Q22E, M23N, D81E
notes: as m20
B14: ExplResOnc.P174.0040 (ligand, not shown: large carriers)
chain: B1 chain with L12T, Q15E, E16Q, M23E
notes: as m20
B15: ExplResIEE.P026.237 (ligand)
chain: B4 chain with E11Q, E12L, Q23M, D87E, N91D, Q95E, H120R, E133D
notes: as for B3
B16: ExplResOnc.P174.0173 (ligand, not shown: large carriers)
chain: B1 chain with L12T, Q22H
notes: as m20
B17: ExplResOnc.P173.0259 (ligand, not shown: large carriers)
chain: B1 chain with D81E, E84D
notes: as m20
B18: ExplResOnc.P177.0036 (ligand, not shown: large carriers)
chain: B1 chain with D81Q
notes: as m20
B19: ExplResOnc.P173.0364 (ligand, not shown: large carriers)
chain: B1 chain with E11Q, Q15E, E16D, D19L, M23N, E87S
notes: as m20
B20: ExplResOnc.P178.0145 (ligand, not shown: large carriers)
chain: B1 chain with L12E, Q15E, E16N, D19L, M23N, D81E, E87S
notes: as m20
B21: ExplResIEE.P027.359 (ligand)
chain: B1 chain with Q15E, E16H, E87S, H120R, E133D
notes: as for B3
B22: ExplResIEE.P026.191 (ligand)
chain: B4 chain with E11Q, L19D, Q23M, Q81D, D87S, N91V, Q95E, H120E
notes: as for B3
B23: ExplResIEE.P026.175 (ligand)
chain: B1 chain with Q15E, E16H, D19L, D20Q, M23E, H120R, E133N
notes: as for B3
B24: ExplResOnc.P173.0255 (ligand, not shown: large carriers)
chain: B1 chain with L12D, Q13H, D19L, Q22E, M23E, D81N
notes: as m20
B25: ExplResOnc.P173.0182 (ligand, not shown: large carriers)
chain: B1 chain with Q15E, D19L, M23E, D81N, Q126E
notes: as m20
B26: ExplResOnc.P173.0079 (ligand, not shown: large carriers)
chain: B1 chain with E11Q, Q15E, Q22E, M23Q, E87D
notes: soluble pH-dependent IL2v variant in bacterial supernatant, second library
B27: ExplResIEE.P031.226 (ligand)
chain: B1 chain with E11Q, Q15E, E16H, M23N, E84D, E87S, H120R, E130S
notes: as for B3
B28: ExplResOnc.P173.0239 (ligand, not shown: large carriers)
chain: B1 chain with D19L, Q22E, M23E, D81H, E133D
notes: as m20
B29: ExplResOnc.P172.0344 (ligand, not shown: large carriers)
chain: APASSYTKKTQERLEQLLLDLEQILNGINNYKNPKLTRMLTAKFAMPKKATELKHLQCLEEELKPLEEVLNGAQSKNFHLNPRELIENINVIVLELKGSETTFMCEYADETATIVEFLNHWITFAQSIIETLD
notes: as m20
B30: ExplResIEE.P041.242 (ligand)
chain: B1 chain with E11Q, Q15E, E16H, D81E, E84D, E87S, H120R, E133D
notes: as for B3
B31: ExplResIEE.P042.107 (ligand)
chain: B1 chain with K8E, E11Q, Q15E, E16H, D19L, D20E, M23N, D81H, E84Q, E133D
notes: as for B3
B32: ExplResOnc.P173.0156 (ligand, not shown: large carriers)
chain: B1 chain with L12S, E16N, M23E, D81E, E87D
notes: as m20
B33: ExplResIEE.P030.045 (ligand)
chain: B1 chain with E11Q, Q15E, E16H, D81E, E87Q
notes: as for B3
B34: ExplResOnc.P174.0327 (ligand, not shown: large carriers)
chain: B1 chain with L12E, Q13H, E16N, Q22E, M23Q, D81E, E87D, E95D, E130S
notes: as m20
B35: ExplResOnc.P174.0326 (ligand, not shown: large carriers)
chain: B1 chain with E11Q, Q15E, Q22D, M23Q
notes: as m20

Tests used:
[1] = target: T1, IL2R(bg)-Fc construct (human IL2R beta extracellular domain fused to Fc(knob) with avi tag, human IL2R gamma … (human, biotin on the C-terminal avi tag (co-expressed BirA))); experiment: ELISA: biotinylated IL2R(bg)-Fc coated on neutravidin plates, clone in bacterial supernatant bound at pH 6, washing and 30 min incubation at pH 6.0, 6.5, 7.0 or 7.4, detection with anti-Flag/HRP; absorption at pH 6 set to 1
T1 construct: Knob-into-hole Fc heterodimer; also called IL2Rβγ; human heterodimeric IL-2 receptor beta/gamma
T1 sequence (chain, as listed by the source limits assumed, chain 1 of 2): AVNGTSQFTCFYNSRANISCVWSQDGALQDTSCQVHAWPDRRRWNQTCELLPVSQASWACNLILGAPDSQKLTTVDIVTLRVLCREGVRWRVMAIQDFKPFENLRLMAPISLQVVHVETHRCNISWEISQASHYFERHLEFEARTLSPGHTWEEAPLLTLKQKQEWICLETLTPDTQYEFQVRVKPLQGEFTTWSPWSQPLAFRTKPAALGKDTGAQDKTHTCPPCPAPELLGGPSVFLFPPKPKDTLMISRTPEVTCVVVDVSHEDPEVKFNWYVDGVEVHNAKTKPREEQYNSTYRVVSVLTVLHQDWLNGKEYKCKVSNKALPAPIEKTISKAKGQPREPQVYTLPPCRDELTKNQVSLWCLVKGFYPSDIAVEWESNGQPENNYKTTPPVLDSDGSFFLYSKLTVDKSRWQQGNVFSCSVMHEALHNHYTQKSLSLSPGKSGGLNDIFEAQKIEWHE
T1 sequence (chain, as listed by the source limits assumed, chain 2 of 2): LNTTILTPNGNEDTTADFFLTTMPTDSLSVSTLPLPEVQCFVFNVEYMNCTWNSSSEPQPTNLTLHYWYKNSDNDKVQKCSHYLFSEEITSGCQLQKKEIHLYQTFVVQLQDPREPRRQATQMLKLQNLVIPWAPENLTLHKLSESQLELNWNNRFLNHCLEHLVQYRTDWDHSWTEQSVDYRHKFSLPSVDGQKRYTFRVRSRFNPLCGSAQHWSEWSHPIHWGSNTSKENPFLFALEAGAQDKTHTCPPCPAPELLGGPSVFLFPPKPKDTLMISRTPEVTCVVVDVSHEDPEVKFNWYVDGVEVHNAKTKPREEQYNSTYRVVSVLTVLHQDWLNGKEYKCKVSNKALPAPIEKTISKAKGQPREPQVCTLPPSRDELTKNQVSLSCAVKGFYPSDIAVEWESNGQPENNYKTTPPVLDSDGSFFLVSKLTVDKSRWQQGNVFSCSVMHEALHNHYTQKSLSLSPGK
Protocol: (§1) FIG. 4. Binding analysis for the second set of selected pH-dependent IL2v variants to IL2Rfβγ at pH 6, pH 6.5, pH 7 and pH 7.4 by ELISA. Bacterial supernatants containing clonal pH-dependent IL2v variants were incubated with previously coated IL2Rfβγ. Prior to the detection by an anti-Flag/HRP secondary antibody, extensive washing for 30 minutes was performed at pH 6 or pH 7.4. The absorption at pH 6 was normalized to a value of 1 and the ratio of absorption levels was compared.
25 μl of 50 nM biotinylated antigen per well were coated at pH 6 on 384-well neutravidin plates and blocked with 2% BSA (50 mM BisTris 140 mM NaCL, 2% BSA, pH 6). Bacterial supernatants containing soluble variants of IL2v were re-buffered to pH 6, added to the plates and incubated for 1 h. Subsequently, several washing steps were performed at either pH 6 or pH 7.4 followed by an incubation step in washing buffer for 30 min at the respective pH. Binding of pH-dependent IL2v variants to the IL2R(bg)-Fc construct was detected via Flag tag by using an anti-Flag/HRP secondary antibody. Comparison of the signal between the two conditions (pH6 vs pH7.4) allowed identifying clones that bind in a pH-dependent manner. The phagemid expressing the parental IL2v construct was used as an internal control for a pH-independent signal. Clones with a binding ratio at pH 6 versus pH 7 that greater than 10 were short-listed and re-tested in order to confirm their pH-dependency.
In order to further characterize the selected pH-dependent IL2v variants, they were analyzed for their binding to IL2R(bg)-Fc under four different pH conditions including pH 6, pH 6.5, pH 7, and pH 7.4. Binding at pH 6 was normalized to 1 in order to better compare binding among all clones. […] In general, binding intensity at pH 7 and pH 7.4 was reduced between 10-100-fold

[2] = target: T1, IL2R(bg)-Fc construct (human IL2R beta …); experiment: ELISA: biotinylated IL2R(bg)-Fc coated on neutravidin plates, clone in bacterial supernatant bound at pH 6, washing and 30 min incubation at pH 6 or pH 7.4, detection with anti-Flag/HRP; absorption at pH 6 set to 1
Protocol: as §1, with “FIG. 3.” for “FIG. 4.”, “the first” for “the second”, “pH 6” for “pH 6, pH 6.5, pH 7”
25 μl of 50 nM biotinylated antigen per well were coated at pH 6 on 384-well neutravidin plates and blocked with 2% BSA (50 mM BisTris 140 mM NaCl, 2% BSA, pH 6). Bacterial supernatants containing soluble variants of IL2v were re-buffered to pH 6, added to the plates and incubated for 1 h. Subsequently, several washing steps were performed at either pH 6 or pH 7.4 followed by an incubation step in washing buffer for 30 min at the respective pH. Binding of pH-dependent IL2v variants to the IL2R(bg)-Fc construct was detected via Flag tag by using an anti-Flag/HRP secondary antibody. Comparison of the signal between the two conditions (pH 6 vs pH 7.4) allowed identifying constructs that bind in a pH-dependent manner. The phagemid expressing the parental IL2v construct was used as an internal pH-independent control. […] (FIG. 3), were selected (SEQ ID NOs 5-19) and converted into one-armed (OA) targeted conjugates.

| Binder | binding result [1] | binding result [2] |
| --- | --- | --- |
| B1 | binds |  |
| B2 | binds |  |
| B3 |  | binds |
| B4 |  | binds |
| B5 |  | binds |
| B6 | binds |  |
| B7 | binds |  |
| B8 |  | binds |
| B9 |  | binds |
| B10 | binds |  |
| B11 |  | binds |
| B12 | binds |  |
| B13 | binds |  |
| B14 | binds |  |
| B15 |  | binds |
| B16 | binds |  |
| B17 | binds |  |
| B18 | binds |  |

| Binder | binding result [1] | binding result [2] |
| --- | --- | --- |
| B19 | binds |  |
| B20 | binds |  |
| B21 |  | binds |
| B22 |  | binds |
| B23 |  | binds |
| B24 | binds |  |
| B25 | binds |  |
| B26 | binds |  |
| B27 |  | binds |
| B28 | binds |  |
| B29 | binds |  |
| B30 |  | binds |
| B31 |  | binds |
| B32 | binds |  |
| B33 |  | binds |
| B34 | binds |  |
| B35 | binds |  |
